Measured values reported in publication PMC2493294.

Molecular target: t-SNARE complex (syntaxin HT and SNAP-25) (rat) (UniProt P32851)
Experiment: EPR spectroscopy

complexin I C105A R56C, spin-labeled at position 56 (from UniProt P63041 2-134) (natural protein)
Kd: 50 µM
